Values of other authors, collected in article PMC10003451, “Phosphorylated Peptide Derived from the Myosin Phosphatase Target Subunit Is a Novel Inhibitor of Protein Phosphatase-1” (International Journal of Molecular Sciences, 2023).

B1: His-tagged MYPT1^514−963: C-terminal fragment of a recombinant His-tagged MYPT1 phosphorylated at Thr654 (protein, UniProt O14974 514-963, looked up, fragment)
chain: KENRDSSSLRTSSSYTRRKWEDDLKKNSSVNEGSTYHKSCSFGRRQDDLISSSVPSTTSTPTVTSAAGLQKSLLSSTSTTTKITTGSSSAGTQSSTSNRLWAEDSTEKEKDSVPTAVTIPVAPTVVNAAASTTTLTTTTAGTVSSTTEVRERRRSYLTPVRDEESESQRKARSRQARQSRRSTQGVTLTDLQEAEKTIGRSRSTRTREQENEEKEKEEKEKQDKEKQEEKKESETSREDEYKQKYSRTYDETYQRYRPVSTSSSTTPSSSLSTMSSSLYASSQLNRPNSLVGITSAYSRGITKENEREGEKREEEKEGEDKSQPKSIRERRRPREKRRSTGVSFWTQDSDENEQEQQSDTEEGSNKKETQTDSISRYETSSTSAGDRYDSLLGRSGSYSYLEERKPYSSRLEKDDSTDFKKLYEQILAENEKLKAQLHDTNMELTDLKLQ
modifications: His tag; phosphorylated Thr654
B2: GST-MYPT1^654−880: GST-MYPT1^654−880 fragment phosphorylated at Thr696 (protein, UniProt O14974 654-880, looked up, fragment)
chain: GTVSSTTEVRERRRSYLTPVRDEESESQRKARSRQARQSRRSTQGVTLTDLQEAEKTIGRSRSTRTREQENEEKEKEEKEKQDKEKQEEKKESETSREDEYKQKYSRTYDETYQRYRPVSTSSSTTPSSSLSTMSSSLYASSQLNRPNSLVGITSAYSRGITKENEREGEKREEEKEGEDKSQPKSIRERRRPREKRRSTGVSFWTQDSDENEQEQQSDTEEGSNKK
modifications: GST fusion; phosphorylated Thr696
notes: GST-MYPT1^654−880 fragment phosphorylated at Thr696

Tests used:
PP1c = target: T1, PP1c (Homo sapiens, UniProt P62136); set-up: method as in 2 sources, ref 30 = [30]; PMID 12030846; doi:10.1042/bj20020401; 30. Murányi A. MacDonald J.A. Deng J.T. Wilson D.P. Haystead T.A. Walsh M.P. Erdődi F. Kiss E. Wu Y. Hartshorne D.J. Phosphorylation of the myosin phosphatase target subunit by integrin-linked kinase ||| ref 31 = [31]; PMID 19531490; doi:10.1074/jbc.M109.019729; 31. Khromov A. Choudhury N. Stevenson A.S. Somlyo A.V. Eto M. Phosphorylation-dependent autoinhibition of myosin light chain phosphatase accounts for Ca 2+ sensitization force of smooth muscle contrac
T1 construct: made in house; host or cells: E. coli

MP holoenzyme = test system: MP holoenzyme; set-up: method as in PMID 19531490; conditions: phosphorylated at Thr696

T1 sequence (P62136 whole entry): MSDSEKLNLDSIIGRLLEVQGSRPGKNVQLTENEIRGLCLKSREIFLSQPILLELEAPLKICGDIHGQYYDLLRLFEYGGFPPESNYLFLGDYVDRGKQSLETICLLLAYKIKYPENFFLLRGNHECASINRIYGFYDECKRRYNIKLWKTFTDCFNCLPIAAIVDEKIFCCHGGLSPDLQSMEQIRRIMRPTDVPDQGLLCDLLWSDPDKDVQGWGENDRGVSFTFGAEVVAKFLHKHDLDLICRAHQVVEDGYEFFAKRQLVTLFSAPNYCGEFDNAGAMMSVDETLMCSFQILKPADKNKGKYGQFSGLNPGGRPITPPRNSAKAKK

Row | Molecule | IC50 (PP1c; phosphorylated at Thr654 (corresponding to Thr696 in the longer MYPT1 isoform), read-out: IC50, inhibition of PP1c (literature)) | effect on PP1c (literature) (PP1c; phosphorylated at Thr696) | inhibition of MP holoenzyme (literature) (MP holoenzyme)
1 | B1 | ~100 nM |  | 
2 | B2 |  | without effect on PP1c | inhibited MP holoenzyme potently in nanomolar concentrations
